{
  "source": "paper PMC3931819",
  "key": {"[1]": {"molecular_target": "6X(His)-tagged P-domain of the VP1 capsid protein of norovirus VA387 (GII.4 genotype), with the cysteine-rich peptide … (norovirus VA387 (GII.4 genotype))", "test": "cross-linking; 5 ug protein in HEPES 20 mM pH 7, NaCl 100 mM, MgCl2 10 mM with 0%, 0.5% or 1% glutaraldehyde, 5 min at 37°C; samples with or without boiling resolved on 10% SDS-PAGE"}, "[2]": {"molecular_target": "6X(His)-tagged P-domain of the VP1 capsid protein of norovirus Norwalk strain (GI.1 genotype), with the CNGRC cysteine-rich domain (Norwalk virus (GI.1 genotype))", "test": "cross-linking; 5 ug protein in HEPES 20 mM pH 7, NaCl 100 mM, MgCl2 10 mM with 0%, 0.5% or 1% glutaraldehyde, 5 min at 37°C; samples with or without boiling resolved on 10% SDS-PAGE"}},
  "data": [
    {"substance": "6X(His)-tagged P-domain of the VP1 capsid protein of norovirus VA387 (GII.4 genotype), with the cysteine-rich peptide … (domain or fragment)", "values": [
      {"measurement": "stoichiometry N", "setting": "[1]", "value": "> 2"}
    ]},
    {"substance": "6X(His)-tagged P-domain of the VP1 capsid protein of norovirus Norwalk strain (GI.1 genotype), with the CNGRC cysteine-rich domain (domain or fragment)", "values": [
      {"measurement": "stoichiometry N", "setting": "[2]", "value": "> 2"}
    ]}
  ]
}
